Experimental data as given in patent publication US20250325702A1, “COMPOSITIONS AND METHODS FOR EDITING A TRANSTHYRETIN GENE” (Beam Therapeutics Inc., priority 2022, published 2025).
In the oligonucleotide strings, read from the 5' end, every base follows the letter of its sugar. An asterisk marks phosphorothioate; unmarked linkages are phosphodiester. Other units and linkages are bracketed, terminal groups are in braces. A string of capitals states the bases alone. m = 2'-O-methyl; r = 2'-OH (RNA)

B1: GA460: guide RNA, spacer 5′-UAUAGGAAAACCAGUGAGUC-3′ (SEQ ID NO: 475) (nucleic acid)
guide: TATAGGAAAACCAGTGAGTCGTTTTAGAGCTAGAAATAGCAAGTTAAAATAAGGCTAGTCCGTTATCAACTTGAAAAAGTGGCACCGAGTCGGTGCTTTT
modifications: chemistry not given here
B2: GA459: guide RNA, spacer 5′-GCAACUUACCCAGAGGCAAA-3′ (SEQ ID NO: 474) (nucleic acid)
guide: GCAACTTACCCAGAGGCAAAGTTTTAGAGCTAGAAATAGCAAGTTAAAATAAGGCTAGTCCGTTATCAACTTGAAAAAGTGGCACCGAGTCGGTGCTTTT
modifications: chemistry not given here
B3: sgRNA_362: guide RNA, SEQ ID NO: 480 (nucleic acid)
guide: mU*mA*mC*rUrCrArCrCrUrCrUrGrCrArUrGrCrUrCrArGrUrUrUrUrArGrArGrCrUrArGrArArArUrArGrCrArArGrUrUrArArArArUrArArGrGrCrUrArGrUrCrCrGrUrUrArUrCrArArCrUrUrGrArArArArArGrUrGrGrCrArCrCrGrArGrUrCrGrGrUrGrCmU*mU*mU*rU
B4: GA461: guide RNA, spacer 5′-UACUCACCUCUGCAUGCUCA-3′ (SEQ ID NO: 476) (nucleic acid)
guide: TACTCACCTCTGCATGCTCAGTTTTAGAGCTAGAAATAGCAAGTTAAAATAAGGCTAGTCCGTTATCAACTTGAAAAAGTGGCACCGAGTCGGTGCTTTT
modifications: chemistry not given here
B5: sgRNA_361: guide RNA, SEQ ID NO: 479 (nucleic acid)
guide: mU*mA*mU*rArGrGrArArArArCrCrArGrUrGrArGrUrCrGrUrUrUrUrArGrArGrCrUrArGrArArArUrArGrCrArArGrUrUrArArArArUrArArGrGrCrUrArGrUrCrCrGrUrUrArUrCrArArCrUrUrGrArArArArArGrUrGrGrCrArCrCrGrArGrUrCrGrGrUrGrCmU*mU*mU*rU

Legend:
[1] = molecular target: purified cyno TTR protein (Abcam, ab239566) (cyno (Macaca fascicularis)) (UniProt Q8HXW1); assay: sandwich ELISA; known concentrations of purified cyno TTR run on the human TTR kit, read against the human TTR standards
[2] = tested on: on-target site and candidate off-target sites; assay: Validation of candidate off-target sites in primary human hepatocytes; format: cell-based; conditions: for editing efficiency at the on-target site: gRNA + ABE8.8 mRNA
Procedure: Several candidate off-target sites were analyzed for off-target editing in human primary hepatocytes.

[3] = tested on: human TTR gene; assay: Base editing in primary human hepatocytes (gRNA + ABE8.8 mRNA transfection, NGS of amplicons); format: cell-based; conditions: for Human hepatocytes- Editing % 625, rep 1 / Human hepatocytes- Editing % 625, rep 2: 625 ng/RNA/mL; for Human hepatocytes- Editing % 625, rep 1 / Human hepatocytes- Editing % 625, rep 2 / Human hepatocytes- Editing % 1250, rep 1 / Human hepatocytes- Editing % 1250, rep 2 / Human hepatocytes- Editing % 2500, rep 1 / Human hepatocytes- Editing % 2500, rep 2: gRNA + ABE8.8 mRNA 1:1; for Human hepatocytes- Editing % 1250, rep 1 / Human hepatocytes- Editing % 1250, rep 2: 1250 ng/RNA/mL; for Human hepatocytes- Editing % 2500, rep 1 / Human hepatocytes- Editing % 2500, rep 2: 2500 ng/RNA/mL; for editing activity (percent splice editing) in human hepatocytes: primary human hepatocytes, ABE8.8 mRNA 1:1, three days after transfection
Description: In this example, gRNA sequences were identified that permit ABE8.8 (and other ABE variants containing Streptococcus pyogenes Cas9, such as ABE7.10, or another Cas protein that can use the NGG PAM) to either: 1) disrupt the start codon, and/or 2) disrupt splice sites, whether donors or acceptors, via A→G editing within its editing window (roughly positions 4 to 7 in the 20-nt protospacer region of DNA). Five sequences were identified throughout the human TTR gene that disrupt TTR expression (Table 8). gRNAs were synthesized matching each of the protospacer sequences and otherwise conforming to the standard 100-nt Streptococcus pyogenes CRISPR gRNA sequence, with each gRNA molecule having a minimal degree of chemical modifications (specified in Table 8). Each of the gRNAs was co-transfected with an equivalent amount of in vitro transcribed ABE8.8 mRNA (1:1 ratio by molecular weight) into primary human hepatocytes via MessengerMax reagent (Lipofectamine), using various dilutions (2500,1250, 625 ng/RNA/mL) to assess for editing activity at different concentrations of test article.
(§1) For orthogonal protospacer sequences of the corresponding cynomolgus monkey TTR gene sequence, each gRNA was also transfected with an equivalent amount of ABE8.8 mRNA (1:1 ratio by molecular weight) into primary cynomolgus hepatocytes at 5000, 2500, 1250, 625, 312.5, and 156.25 ng/RNA/mL. The mRNA, and corresponding amino acid, sequence of the ABE8.8 (MA004) used in shown below in Table 18. Three days after transfection, genomic DNA was harvested from the hepatocytes, and assessed for base editing with next-generation sequencing of PCR amplicons generated around the target splice site. […] See FIGS. 5A-5C, FIG. 6, and Tables 9-10.

[4] = tested on: cynomolgus monkey TTR gene; assay: Base editing in primary cynomolgus hepatocytes (gRNA + ABE8.8 mRNA transfection, NGS); format: cell-based; conditions: for Cyno hepatocytes- Editing % 156.25: 156.25 ng/RNA/mL; for Cyno hepatocytes- Editing % 156.25 / Cyno hepatocytes- Editing % 312.5 / Cyno hepatocytes- Editing % 625 / Cyno hepatocytes- Editing % 1250 / Cyno hepatocytes- Editing % 2500 / Cyno hepatocytes- Editing % 5000: gRNA + ABE8.8 mRNA 1:1; for Cyno hepatocytes- Editing % 312.5: 312.5 ng/RNA/mL; for Cyno hepatocytes- Editing % 625: 625 ng/RNA/mL; for Cyno hepatocytes- Editing % 1250: 1250 ng/RNA/mL; for Cyno hepatocytes- Editing % 2500: 2500 ng/RNA/mL; for Cyno hepatocytes- Editing % 5000: 5000 ng/RNA/mL; for editing activity in cynomolgus primary hepatocytes: ABE8.8 mRNA 1:1, three days after transfection
Procedure: as §1

[5] = tested on: transthyretin (TTR) gene; assay: Guide RNA screen in HEK293T cells: splice site disruption by base editors and bhCas12b nuclease (Example 5); format: cell-based, human; conditions: editor mRNA + sgRNA
Procedure: The guide RNAs listed in Table 1 were screened for use in editing the transthyretin (TTR) gene by disrupting splice sites (FIG. 29A-29C) or using a bhCas12b nuclease strategy (FIG. 30). 15 total guide RNAs were screened. The screen was performed in HEK293T cells using based editors and bhCas12b delivered as mRNA and the sgRNAs. The guide RNAs sgRNA_361 and sgRNA_362 worked well in splice site disruption (FIGS. 29A-29C) using ABE and/or BE4. Several of the gRNAs functioned well as bhCas 12b nuclease gRNAs.
Cells were cultured at 37° C. with 5% CO2. HEK293T cells [CLBTx013, American Type Cell Culture Collection (ATCC)] were cultured in Dulbecco's modified Eagles medium plus Glutamax (10566-016, Thermo Fisher Scientific) with 10% (v/v) fetal bovine serum (A31606-02, Thermo Fisher Scientific). Cells were tested negative for mycoplasma after receipt from supplier.
HEK293T cells were seeded onto 48-well well Poly-D-Lysine treated BioCoat plates (Corning) at a density of 35,000 cells/well and transfected 18-24 hours after plating. Cells were counted using a NucleoCounter NC-200 (Chemometec). A solution was prepared containing Opti-MEM reduced serum media (ThermoFisher Scientific), the base editor, nuclease, or control mRNA, and sgRNA. The solution was combined with Lipofectamine MessengerMAX (ThermoFisher) in Opti-MEM reduced serum media and left to rest at room temperature for 15 min. […]

[6] = GA459 On-target site (SEQ ID NO: 468)
[7] = GA459 off-target site OT1 (SEQ ID NO: 1095)
[8] = GA459 off-target site OT3 (SEQ ID NO: 1096)

Molecule	editing efficiency at the on-target site ([2]; primary human hepatocytes)	Human hepatocytes- Editing % 625, rep 1 [3]	Human hepatocytes- Editing % 625, rep 2 [3]	Human hepatocytes- Editing % 1250, rep 1 [3]	Human hepatocytes- Editing % 1250, rep 2 [3]	Human hepatocytes- Editing % 2500, rep 1 [3]	Human hepatocytes- Editing % 2500, rep 2 [3]	editing activity (percent splice editing) in human hepatocytes [3]	off-target editing observed at candidate off-target sites [2]	also measured
antibodies of the human prealbumin (TTR) ELISA kit (Abcam, ab231920) (antibody)	–	–	–	–	–	–	–	–	–	cross-reactivity [1]: 4%
GA457: guide RNA, spacer 5′-GCCAUCCUGCCAAGAAUGAG-3′ (SEQ ID NO: 472), human TTR	high editing efficiency	17.24%	15.39%	26.49%	24.86%	33.96%	31.31%	high editing activity	–	net editing at off-target sites ([2]; 47 candidate off-target sites, primary human hepatocytes): less than 0.4%
B1	high editing efficiency	23.77%	22.27%	38.33%	35.8%	47.61%	47.79%	high editing activity	little to no off-target editing	Cyno hepatocytes- Editing % 156.25 [4]: 1.62%; Cyno hepatocytes- Editing % 312.5 [4]: 11.22%; Cyno hepatocytes- Editing % 625 [4]: 18.44%; Cyno hepatocytes- Editing % 1250 [4]: 31.71%; Cyno hepatocytes- Editing % 2500 [4]: 38.25%; Cyno hepatocytes- Editing % 5000 [4]: 40.16%; editing activity in cynomolgus primary hepatocytes [4]: high editing activity
B2	high editing efficiency	3.79%	3.89%	5.46%	6.15%	8.5%	8.69%	–	little to no off-target editing	SUM Editing %- Human Primary Hepatocytes Treat rep 1 [2, 6]: 14.17%; SUM Editing %- Human Primary Hepatocytes Treat rep 2 [2, 6]: 14.29%; SUM Editing %- Human Primary Hepatocytes Treat rep 1 [2, 7]: 1.19%; SUM Editing %- Human Primary Hepatocytes Treat rep 2 [2, 7]: 1.25%; SUM Editing %- Human Primary Hepatocytes Treat rep 1 [2, 8]: 0.98%; SUM Editing %- Human Primary Hepatocytes Treat rep 2 [2, 8]: 0.82%
B3	–	–	–	–	–	–	–	–	–	splice site disruption using ABE and/or BE4 [5]: worked well
B4	high editing efficiency	21.81%	22.31%	32.82%	32.38%	40.42%	39.43%	high editing activity	little to no off-target editing	Cyno hepatocytes- Editing % 156.25 [4]: 0.07%; Cyno hepatocytes- Editing % 312.5 [4]: 7.45%; Cyno hepatocytes- Editing % 625 [4]: 13.16%; Cyno hepatocytes- Editing % 1250 [4]: 19.46%; Cyno hepatocytes- Editing % 2500 [4]: 29.8%; Cyno hepatocytes- Editing % 5000 [4]: 37.53%; editing activity in cynomolgus primary hepatocytes [4]: high editing activity
B5	–	–	–	–	–	–	–	–	–	splice site disruption using ABE and/or BE4 [5]: worked well
